B1: LHFPL tetraspan subfamily member 5 protein (Homo sapiens), Q8TAF8 (parent)
chain: MVKLLPAQEAAKIYHTNYVRNSRAVGVMWGTLTICFSVLVMALFIQPYWIGDSVNTPQAGYFGLFSYCVGNVLSSELICKGGPLDFSSIPSRAFKTAMFFVALGMFLIIGSIICFSLFFICNTATVYKICAWMQLAAATGLMIGCLVYPDGWDSSEVRRMCGEQTGKYTLGHCTIRWAFMLAILSIGDALILSFLAFVLGYRQDKLLPDDYKADGTEEV
partner: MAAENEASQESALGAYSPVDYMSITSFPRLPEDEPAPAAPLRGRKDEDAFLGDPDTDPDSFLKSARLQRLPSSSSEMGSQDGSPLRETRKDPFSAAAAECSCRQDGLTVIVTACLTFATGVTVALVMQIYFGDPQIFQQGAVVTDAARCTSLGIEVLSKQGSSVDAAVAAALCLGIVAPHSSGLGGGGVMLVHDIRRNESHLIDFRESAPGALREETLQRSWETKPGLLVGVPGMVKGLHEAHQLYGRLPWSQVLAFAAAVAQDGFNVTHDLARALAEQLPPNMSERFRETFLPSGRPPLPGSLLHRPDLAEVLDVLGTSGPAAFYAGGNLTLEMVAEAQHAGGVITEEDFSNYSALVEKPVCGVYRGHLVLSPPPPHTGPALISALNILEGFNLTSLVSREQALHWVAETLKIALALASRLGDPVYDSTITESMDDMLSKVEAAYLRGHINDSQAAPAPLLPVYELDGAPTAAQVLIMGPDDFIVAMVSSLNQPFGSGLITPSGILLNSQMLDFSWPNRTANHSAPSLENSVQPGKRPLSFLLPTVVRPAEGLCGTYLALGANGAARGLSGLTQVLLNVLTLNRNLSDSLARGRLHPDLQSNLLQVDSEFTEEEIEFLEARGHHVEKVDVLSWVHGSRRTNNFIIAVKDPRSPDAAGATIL
B2: Keratin, type II cytoskeletal 6A (Homo sapiens), P02538 (parent)
chain: MASTSTTIRSHSSSRRGFSANSARLPGVSRSGFSSVSVSRSRGSGGLGGACGGAGFGSRSLYGLGGSKRISIGGGSCAISGGYGSRAGGSYGFGGAGSGFGFGGGAGIGFGLGGGAGLAGGFGGPGFPVCPPGGIQEVTVNQSLLTPLNLQIDPTIQRVRAEEREQIKTLNNKFASFIDKVRFLEQQNKVLETKWTLLQEQGTKTVRQNLEPLFEQYINNLRRQLDSIVGERGRLDSELRGMQDLVEDFKNKYEDEINKRTAAENEFVTLKKDVDAAYMNKVELQAKADTLTDEINFLRALYDAELSQMQTHISDTSVVLSMDNNRNLDLDSIIAEVKAQYEEIAQRSRAEAESWYQTKYEELQVTAGRHGDDLRNTKQEIAEINRMIQRLRSEIDHVKKQCANLQAAIADAEQRGEMALKDAKNKLEGLEDALQKAKQDLARLLKEYQELMNVKLALDVEIATYRKLLEGEECRLNGEGVGQVNISVVQSTVSSGYGGASGVGSGLGLGGGSSYSYGSGLGVGGGFSSSSGRAIGGGLSSVGGGSSTIKYTTTSSSSRKSYKH
partner: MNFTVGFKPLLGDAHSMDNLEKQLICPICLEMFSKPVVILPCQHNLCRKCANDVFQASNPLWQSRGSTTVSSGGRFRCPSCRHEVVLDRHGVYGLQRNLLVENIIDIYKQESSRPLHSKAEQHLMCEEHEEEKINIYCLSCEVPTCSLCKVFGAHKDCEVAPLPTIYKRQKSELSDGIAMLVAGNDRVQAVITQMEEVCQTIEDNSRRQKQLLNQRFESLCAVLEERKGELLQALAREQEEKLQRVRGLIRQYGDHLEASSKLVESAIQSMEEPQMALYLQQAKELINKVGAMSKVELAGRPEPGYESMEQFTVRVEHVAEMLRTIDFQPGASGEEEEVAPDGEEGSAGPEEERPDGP
B3: Estrogen receptor beta (Homo sapiens), Q92731-3 (parent)
chain: MDIKNSPSSLNSPSSYNCSQSILPLEHGSIYIPSSYVDSHHEYPAMTFYSPAVMNYSIPSNVTNLEGGPGRQTTSPNVLWPTPGHLSPLVVHRQLSHLYAEPQKSPWCEARSLEHTLPVNRETLKRKVSGNRCASPVTGPGSKRDAHFCAVCSDYASGYHYGVWSCEGCKAFFKRSIQGHNDYICPATNQCTIDKNRRKSCQACRLRKCYEVGMVKCGSRRERCGYRLVRRQRSADEQLHCAGKAKRSGGHAPRVRELLLDALSPEQLVLTLLEAEPPHVLISRPSAPFTEASMMMSLTKLADKELVHMISWAKKIPGMRGNA
partner: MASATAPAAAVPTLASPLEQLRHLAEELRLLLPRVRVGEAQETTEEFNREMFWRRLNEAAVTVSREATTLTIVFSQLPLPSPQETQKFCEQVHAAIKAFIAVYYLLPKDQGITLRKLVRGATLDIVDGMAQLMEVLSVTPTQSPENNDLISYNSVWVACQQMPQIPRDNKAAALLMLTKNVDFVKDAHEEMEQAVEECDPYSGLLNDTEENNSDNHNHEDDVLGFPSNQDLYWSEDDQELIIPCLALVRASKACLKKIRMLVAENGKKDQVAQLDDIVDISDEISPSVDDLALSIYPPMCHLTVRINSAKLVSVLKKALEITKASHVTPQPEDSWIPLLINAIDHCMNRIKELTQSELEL
B4: ATP synthase mitochondrial F1 complex assembly factor 2 (Homo sapiens), Q8N5M1 (parent)
chain: MWRSCLRLRDGGRRLLNRPAGGPSASMSPGPTIPSPARAYAPPTERKRFYQNVSITQGEGGFEINLDHRKLKTPQAKLFTVPSEALAIAVATEWDSQQDTIKYYTMHLTTLCNTSLDNPTQRNKDQLIRAAVKFLDTDTICYRVEEPETLVELQRNEWDPIIEWAEKRYGVEISSSTSIMGPSIPAKTREVLVSHLASYNTWALQGIEFVAAQLKSMVLTLGLIDLRLTVEQAVLLSRLEEEYQIQKWGNIEWAHDYELQELRARTAAGTLFIHLCSESTTVKHKLLKE
B5: Ribonucleoside-diphosphate reductase subunit M2 B (Homo sapiens), Q7LG56 (parent)
chain: MGDPERPEAAGLDQDERSSSDTNESEIKSNEEPLLRKSSRRFVIFPIQYPDIWKMYKQAQASFWTAEEVDLSKDLPHWNKLKADEKYFISHILAFFAASDGIVNENLVERFSQEVQVPEARCFYGFQILIENVHSEMYSLLIDTYIRDPKKREFLFNAIETMPYVKKKADWALRWIADRKSTFGERVVAFAAVEGVFFSGSFAAIFWLKKRGLMPGLTFSNELISRDEGLHCDFACLMFQYLVNKPSEERVREIIVDAVKIEQEFLTEALPVGLIGMNCILMKQYIEFVADRLLVELGFSKVFQAENPFDFMENISLEGKTNFFEKRVSEYQRFAVMAETTDNVFTLDADF
partner: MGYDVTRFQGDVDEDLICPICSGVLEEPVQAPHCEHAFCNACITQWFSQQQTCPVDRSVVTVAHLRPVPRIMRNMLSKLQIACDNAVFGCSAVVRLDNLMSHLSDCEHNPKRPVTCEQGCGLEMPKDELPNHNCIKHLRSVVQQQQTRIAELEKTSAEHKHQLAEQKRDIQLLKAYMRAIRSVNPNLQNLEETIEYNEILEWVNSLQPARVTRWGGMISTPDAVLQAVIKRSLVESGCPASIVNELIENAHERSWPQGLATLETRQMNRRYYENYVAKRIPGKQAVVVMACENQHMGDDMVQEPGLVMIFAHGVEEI
B6: Adenosylhomocysteinase (Homo sapiens), P23526 (parent)
chain: MSDKLPYKVADIGLAAWGRKALDIAENEMPGLMRMRERYSASKPLKGARIAGCLHMTVETAVLIETLVTLGAEVQWSSCNIFSTQDHAAAAIAKAGIPVYAWKGETDEEYLWCIEQTLYFKDGPLNMILDDGGDLTNLIHTKYPQLLPGIRGISEETTTGVHNLYKMMANGILKVPAINVNDSVTKSKFDNLYGCRESLIDGIKRATDVMIAGKVAVVAGYGDVGKGCAQALRGFGARVIITEIDPINALQAAMEGYEVTTMDEACQEGNIFVTTTGCIDIILGRHFEQMKDDAIVCNIGHFDVEIDVKWLNENAVEKVNIKPQVDRYRLKNGRRIILLAEGRLVNLGCAMGHPSFVMSNSFTNQVMAQIELWTHPDKYPVGVHFLPKKLDEAVAEAHLGKLNVKLTKLTEKQAQYLGMSCDGPFKPDHYRY

Variants of: B1
Conditions: with ggt7_human GGT7, Q9UJ14

Row | Variant | effect of a mutation on the interaction
1 | Y127C | disrupting interaction strength
2 | T165M | disrupting interaction strength

Variants of: B2
Conditions: with tri54_human TRIM54, Q9BYV2

Row | Variant | effect of a mutation on the interaction
3 | F174V | causing an interaction

Variants of: B2
Conditions: with tri54_human TRIM54, Q9BYV2
Remark: another data set of the same source

Row | Variant | effect of a mutation on the interaction
4 | F249L | with no effect
5 | A463P | disrupting interaction strength
6 | T552S | with no effect
7 | V523F | with no effect

Further lines, results first:

Row | effect of a mutation on the interaction | Variant
8 | with no effect | F174V
9 | with no effect | I462S
10 | with no effect | N21S
11 | with no effect | N171K

Variants of: B3
Conditions: with ccdb1_human CCNDBP1, O95273

Row | Variant | effect of a mutation on the interaction
12 | F289L | causing an interaction

Variants of: B4
Conditions: with ikzf3_human IKZF3, Q9UKT9
Sequence of ikzf3_human IKZF3, Q9UKT9 (Q9UKT9 whole entry): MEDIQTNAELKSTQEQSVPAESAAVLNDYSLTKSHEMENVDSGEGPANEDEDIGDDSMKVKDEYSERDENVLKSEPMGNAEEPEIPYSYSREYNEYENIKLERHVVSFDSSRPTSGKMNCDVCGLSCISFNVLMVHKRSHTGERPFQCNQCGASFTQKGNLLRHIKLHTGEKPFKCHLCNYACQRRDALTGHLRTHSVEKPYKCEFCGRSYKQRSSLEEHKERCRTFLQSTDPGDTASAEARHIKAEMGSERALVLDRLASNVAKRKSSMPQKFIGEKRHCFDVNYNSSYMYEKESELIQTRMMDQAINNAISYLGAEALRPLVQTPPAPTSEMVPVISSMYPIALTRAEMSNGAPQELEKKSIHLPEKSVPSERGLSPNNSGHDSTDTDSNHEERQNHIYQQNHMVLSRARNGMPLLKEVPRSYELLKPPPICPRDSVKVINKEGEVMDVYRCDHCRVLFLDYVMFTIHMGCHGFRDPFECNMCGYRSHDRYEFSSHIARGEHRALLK

Row | Variant | effect of a mutation on the interaction
13 | W94R | disrupting interaction strength

Variants of: B4
Conditions: with pak5_human PAK5, Q9P286
Sequence of pak5_human PAK5, Q9P286 (Q9P286 whole entry, looked up): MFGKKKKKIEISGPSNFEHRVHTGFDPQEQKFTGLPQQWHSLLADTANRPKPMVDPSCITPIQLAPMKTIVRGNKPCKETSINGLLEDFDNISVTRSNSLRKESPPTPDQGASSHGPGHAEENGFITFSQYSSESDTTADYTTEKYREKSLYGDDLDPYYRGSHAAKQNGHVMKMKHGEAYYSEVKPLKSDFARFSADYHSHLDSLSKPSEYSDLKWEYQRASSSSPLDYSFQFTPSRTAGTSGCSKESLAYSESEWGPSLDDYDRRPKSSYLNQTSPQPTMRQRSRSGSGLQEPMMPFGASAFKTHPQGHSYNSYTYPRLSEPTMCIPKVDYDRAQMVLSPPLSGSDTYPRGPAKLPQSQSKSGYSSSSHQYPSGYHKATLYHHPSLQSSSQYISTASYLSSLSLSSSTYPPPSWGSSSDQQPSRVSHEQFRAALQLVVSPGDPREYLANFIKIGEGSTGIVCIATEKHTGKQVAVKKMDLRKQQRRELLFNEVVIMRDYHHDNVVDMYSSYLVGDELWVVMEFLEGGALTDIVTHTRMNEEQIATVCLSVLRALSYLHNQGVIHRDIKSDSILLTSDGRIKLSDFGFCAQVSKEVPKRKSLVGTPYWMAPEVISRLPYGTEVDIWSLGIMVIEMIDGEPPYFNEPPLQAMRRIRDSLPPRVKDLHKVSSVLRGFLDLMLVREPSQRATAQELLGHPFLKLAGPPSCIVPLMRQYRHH

Row | Variant | effect of a mutation on the interaction
14 | W94R | disrupting interaction strength

Variants of: B4
Conditions: with maga6_human MAGEA6, P43360
Sequence of maga6_human MAGEA6, P43360 (P43360 whole entry): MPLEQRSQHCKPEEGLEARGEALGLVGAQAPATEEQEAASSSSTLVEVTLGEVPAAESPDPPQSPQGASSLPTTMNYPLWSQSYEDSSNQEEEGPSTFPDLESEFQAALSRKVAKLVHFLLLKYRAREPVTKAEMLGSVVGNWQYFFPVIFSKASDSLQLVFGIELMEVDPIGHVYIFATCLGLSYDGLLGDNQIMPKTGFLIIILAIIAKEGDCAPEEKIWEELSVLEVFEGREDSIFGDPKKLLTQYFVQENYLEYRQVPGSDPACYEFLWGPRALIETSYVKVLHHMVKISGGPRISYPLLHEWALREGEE

Row | Variant | effect of a mutation on the interaction
15 | W94R | disrupting interaction strength

Variants of: B4
Conditions: with lzts2_human LZTS2, Q9BRK4
Sequence of lzts2_human LZTS2, Q9BRK4 (Q9BRK4 whole entry): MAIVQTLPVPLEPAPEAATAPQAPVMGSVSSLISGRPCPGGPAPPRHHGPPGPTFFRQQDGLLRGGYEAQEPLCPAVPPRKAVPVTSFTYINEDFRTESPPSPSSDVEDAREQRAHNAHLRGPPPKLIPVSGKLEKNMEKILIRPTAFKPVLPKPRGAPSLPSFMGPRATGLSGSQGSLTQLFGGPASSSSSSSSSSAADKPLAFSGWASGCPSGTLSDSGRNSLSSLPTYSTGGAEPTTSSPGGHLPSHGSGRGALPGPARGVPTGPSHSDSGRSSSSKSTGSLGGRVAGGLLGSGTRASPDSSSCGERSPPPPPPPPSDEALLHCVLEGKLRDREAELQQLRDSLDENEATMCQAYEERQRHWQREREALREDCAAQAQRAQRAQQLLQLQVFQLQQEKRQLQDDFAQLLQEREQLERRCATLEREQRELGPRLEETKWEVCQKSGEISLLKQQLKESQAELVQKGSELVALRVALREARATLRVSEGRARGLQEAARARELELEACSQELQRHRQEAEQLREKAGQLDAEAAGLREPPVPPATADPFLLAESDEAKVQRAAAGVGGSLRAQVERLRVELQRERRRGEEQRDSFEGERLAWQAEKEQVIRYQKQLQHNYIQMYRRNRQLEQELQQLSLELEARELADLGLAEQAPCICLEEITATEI

Row | Variant | effect of a mutation on the interaction
16 | W94R | disrupting interaction strength

Variants of: B4
Conditions: with KRT40, Q6A162
Sequence of KRT40, Q6A162 (Q6A162 whole entry): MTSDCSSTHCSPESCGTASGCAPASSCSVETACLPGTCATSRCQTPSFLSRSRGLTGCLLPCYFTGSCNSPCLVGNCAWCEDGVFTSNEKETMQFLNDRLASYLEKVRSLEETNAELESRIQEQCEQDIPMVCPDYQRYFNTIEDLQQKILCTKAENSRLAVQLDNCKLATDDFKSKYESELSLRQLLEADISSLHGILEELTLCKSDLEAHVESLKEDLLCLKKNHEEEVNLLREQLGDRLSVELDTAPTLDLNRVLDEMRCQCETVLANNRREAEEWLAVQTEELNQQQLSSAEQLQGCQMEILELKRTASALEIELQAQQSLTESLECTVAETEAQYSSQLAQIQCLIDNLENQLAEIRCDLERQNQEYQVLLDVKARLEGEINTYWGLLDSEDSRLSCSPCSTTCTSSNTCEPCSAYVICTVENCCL

Row | Variant | effect of a mutation on the interaction
17 | W94R | disrupting interaction strength

Variants of: B4
Conditions: with rpia_human RPIA

Row | Variant | effect of a mutation on the interaction
18 | W94R | disrupting interaction strength

Variants of: B4
Conditions: with ews_human EWSR1, Q01844
Sequence of ews_human EWSR1, Q01844 (Q01844 whole entry): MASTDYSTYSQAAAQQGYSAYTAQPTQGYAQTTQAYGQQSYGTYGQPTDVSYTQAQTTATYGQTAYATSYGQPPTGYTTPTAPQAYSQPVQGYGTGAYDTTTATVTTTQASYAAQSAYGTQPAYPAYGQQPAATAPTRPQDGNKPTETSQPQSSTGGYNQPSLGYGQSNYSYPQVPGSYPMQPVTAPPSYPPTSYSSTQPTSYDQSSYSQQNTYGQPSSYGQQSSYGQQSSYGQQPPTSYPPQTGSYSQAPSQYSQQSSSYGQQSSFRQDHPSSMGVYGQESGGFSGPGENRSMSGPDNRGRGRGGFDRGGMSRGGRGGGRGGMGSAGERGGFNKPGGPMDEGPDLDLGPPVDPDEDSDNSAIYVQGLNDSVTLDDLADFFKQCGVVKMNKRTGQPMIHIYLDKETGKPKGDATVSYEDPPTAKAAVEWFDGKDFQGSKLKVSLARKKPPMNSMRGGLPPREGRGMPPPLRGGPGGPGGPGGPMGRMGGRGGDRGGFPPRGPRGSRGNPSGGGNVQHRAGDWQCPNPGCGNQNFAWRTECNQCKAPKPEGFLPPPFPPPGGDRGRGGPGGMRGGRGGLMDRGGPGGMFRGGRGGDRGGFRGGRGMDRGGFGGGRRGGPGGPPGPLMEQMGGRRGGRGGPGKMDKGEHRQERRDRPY

Row | Variant | effect of a mutation on the interaction
19 | W94R | disrupting interaction strength

Variants of: B5
Conditions: with rnf41_human RNF41, Q9H4P4

Row | Variant | effect of a mutation on the interaction
20 | W64R | disrupting interaction strength

Variants of: B6
Conditions: with ca050_human C1orf50, Q9BV19
Sequence of ca050_human C1orf50, Q9BV19 (Q9BV19 whole entry): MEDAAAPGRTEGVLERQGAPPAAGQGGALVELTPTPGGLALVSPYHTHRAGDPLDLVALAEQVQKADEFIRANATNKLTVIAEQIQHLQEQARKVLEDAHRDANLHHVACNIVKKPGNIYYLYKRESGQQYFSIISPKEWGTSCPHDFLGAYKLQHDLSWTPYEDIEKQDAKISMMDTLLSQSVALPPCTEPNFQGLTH

Row | Variant | effect of a mutation on the interaction
21 | A89V | with no effect

— IntAct's records for PubMed 25910212
